Patent US20150202223A1 (GENERAL HOSPITAL, published 2015)

T1: STING-HA (Sting cDNA with a C-terminal HA tag, stably expressed in p53-/- MEFs) (mouse, UniProt Q3TBT3 1-378)
T1 construct: not shown: C-terminal HA tag added by PCR
T1 sequence (looked up): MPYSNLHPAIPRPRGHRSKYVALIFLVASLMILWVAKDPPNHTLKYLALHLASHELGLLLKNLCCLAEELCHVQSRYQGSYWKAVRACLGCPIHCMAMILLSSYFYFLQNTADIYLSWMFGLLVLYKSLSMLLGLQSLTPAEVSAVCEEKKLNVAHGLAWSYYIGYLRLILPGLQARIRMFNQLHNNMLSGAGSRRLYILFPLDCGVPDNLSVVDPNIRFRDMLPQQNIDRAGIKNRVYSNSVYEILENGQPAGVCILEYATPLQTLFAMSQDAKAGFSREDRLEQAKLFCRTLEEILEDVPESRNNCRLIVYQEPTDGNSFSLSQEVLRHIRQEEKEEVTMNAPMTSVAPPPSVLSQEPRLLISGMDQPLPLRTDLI

B1: HMGB2 (other, mouse, UniProt P30681 1-210, looked up)
chain: MGKGDPNKPRGKMSSYAFFVQTCREEHKKKHPDSSVNFAEFSKKCSERWKTMSAKEKSKFEDLAKSDKARYDREMKNYVPPKGDKKGKKKDPNAPKRPPSAFFLFCSENRPKIKIEHPGLSIGDTAKKLGEMWSEQSAKDKQPYEQKAAKLKEKYEKDIAAYRAKGKSEAGKKGPGRPTGSKKKNEPEDEEEEEEEEEEEDDEEEEEDEE
notes: Endogenous protein co-precipitated from MEF lysates
B2: ANP32A (other, mouse, UniProt O35381 1-247, looked up)
chain: MEMDKRIYLELRNRTPSDVKELVLDNCKSIEGKIEGLTDEFEELEFLSTINVGLTSISNLPKLNKLKKLELSENRISGDLEVLAEKCPNLKHLNLSGNKIKDLSTIEPLKKLENLKSLDLFNCEVTNLNAYRENVFKLLPQVMYLDGYDRDNKEAPDSDVEGYVEDDDEEDEDEEEYDEYAQLVEDEEEEDEEEEGEEEDVSGEEEEDEEGYNDGEVDDEEDEEEAGEEEGSQKRKREPDDEGEEDD
notes: as for B1

Target: T1, STING-HA (Sting cDNA with a C-terminal …)
Assay: anti-HA immunoprecipitation of STING-HA from MEF lysate, SILAC mass spectrometry
Description: Light (L) and heavy (H) isotope-labeled p53−/− MEFs mock infected (L) or stably expressing Sting-HA (H) were stimulated with 1000 U/mL IFNβ for 18 h. H cells were transfected with ISD for 2.5 h. Cells were lysed in 0.2% NP-40 buffer (above), and insoluble proteins were removed by centrifugation. 18 mg of each lysate was mixed with 1 ug/mL anti-HA antibody and Protein G beads (Pierce), and rotated for 2.5 h at 4° C. Beads were pelleted and washed extensively with wash buffer (above). The two samples were mixed, cysteines were reduced by DTT and alkylated with iodoacetamide, and proteins were eluted by heating in SDS sample buffer (Life Technologies) for 10 min before separation on a 4-12% gradient gel. The whole gel lane was cut into 8 slices, proteins were digested inside the gel with trypsin, and peptides were extracted from the gel as described4. Extracted peptides were purified with StageTips5 and analyzed with a 100 min acquisition method on a Thermo EASY-nLC 1000 UHPLC coupled to a Q Exactive mass spectrometer. […] All proteins were identified with at least 2 or more unique peptides and quantified with 3 or more ratios. […] To identify significant interactions, P-values were calculated via Gaussian modeling of the log(H/L) data, and proteins with P<0.05 were designated as candidates for siRNA screening.

Row | Binder | binding result
1 | B1 | no binding
2 | B2 | no binding
